Laboratory results: article PMC6224492 (2018)
The star is where a group is joined. FITC = O=C1OC2(c3ccc(O)cc3Oc3cc(O)ccc32)c2ccc(NC(=S)*)cc21; Ahx = NCCCCCC(=O)O

T1: full-length PPARγ with GW1929 (Homo sapiens)
T1 chain: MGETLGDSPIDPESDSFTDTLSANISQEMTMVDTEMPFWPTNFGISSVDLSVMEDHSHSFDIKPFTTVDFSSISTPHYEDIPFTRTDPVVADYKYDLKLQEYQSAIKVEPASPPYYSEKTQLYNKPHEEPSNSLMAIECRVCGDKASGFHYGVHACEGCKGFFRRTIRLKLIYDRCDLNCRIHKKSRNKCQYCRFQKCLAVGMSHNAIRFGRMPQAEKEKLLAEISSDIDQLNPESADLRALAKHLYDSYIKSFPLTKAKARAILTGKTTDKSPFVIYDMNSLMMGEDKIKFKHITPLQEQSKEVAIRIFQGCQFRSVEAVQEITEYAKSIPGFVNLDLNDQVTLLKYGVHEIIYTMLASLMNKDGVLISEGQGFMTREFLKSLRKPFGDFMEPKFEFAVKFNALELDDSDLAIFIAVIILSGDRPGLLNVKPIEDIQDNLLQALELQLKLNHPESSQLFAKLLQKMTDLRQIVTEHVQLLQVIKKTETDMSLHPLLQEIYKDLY


Legend:
[1] = target: full-length PPARγ (isoform 2), delipidated, no ligand (human) (UniProt P37231); assay: FP
[2] = target: T1, full-length PPARγ with GW1929; assay: FP; GW1929

| Molecule | Kd [1] [µM] | Kd [2] [µM] |
| --- | --- | --- |
| FITC-labeled NCoR1 corepressor peptide (residues 2256-2278) | 7.4 | – |
| {FITC-Ahx}-DPASNLGLEDIIRKALMGSFDDK-NH2 [FITC-labeled NCoR1 corepressor peptide (residues 2256-2278)] | – | 9 |
